Assay results reported in patent publication EP1775307B1 (dated 2011).
Blank lines part the entries; values can stand above or below the molecule they belong to.

Assays:
[1] = biological target: 28/32 kDa heterodimeric antigen on the surface of malignant B-cells (human); test: Scatchard analysis, 125I-labeled antibody on Raji cells
[2] = biological target: T1, human CD3 antigen (CD3 complex) on T cells (human, UniProt P07766 23-207); test: Scatchard analysis, 125I-labeled HuM291-Fos on activated human T cells
T1 construct: whole, on cells; Multi-subunit complex; also called human CD3 complex
T1 sequence (P07766 23-207, one chain of several): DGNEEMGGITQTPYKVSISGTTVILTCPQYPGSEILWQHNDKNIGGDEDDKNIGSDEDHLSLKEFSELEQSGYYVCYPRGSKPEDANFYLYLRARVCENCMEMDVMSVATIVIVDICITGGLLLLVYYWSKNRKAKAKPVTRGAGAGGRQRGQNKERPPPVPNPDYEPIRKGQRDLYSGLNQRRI

Ka [1]: 2.3e+08 M⁻¹
Molecule: humanized 1D10-IgG1 (antibody)

Ka [2]: 1.1e+09 M⁻¹
B1: HuM291-Fos F(ab'-zipper)2 (other)
chain 1: QVQLVQSGAEVKKPGASVKVSCKASGYTFISYTMHWVRQAPGQGLEWMGYINPRSGYTHYNQKLKDKATLTADKSASTAYMELSSLRSEDTAVYYCARSAYYDYDGFAYWGQGTLVTVSSASTKGPSVFPLAPSSKSTSGGTAALGCLVKDYFPEPVTVSWNSGALTSGVHTFPAVLQSSGLYSLSSVVTVPSSSLGTQTYICNVNHKPSNTKVDKKVEPKSCDKTHTCPPCKCPAGGLTDTLQAETDQLEDKKSALQTEIANLLKGKEKLEFILAATS
chain 2: DIQMTQSPSSLSASVGDRVTITCSASSSVSYMNWYQQKPGKAPKRLIYDTSKLASGVPSRFSGSGSGTDFTLTISSLQPEDFDTYYCQQWSSNPPTFGGGTKVEIKRTVAAPSVFIFPPSDEQLKSGTASVVCLLNNFYPREAKVQWKVDNALQSGNSQESVTEQDSKDSTYSLSSTLTLSKADYEKHKVYACEVTHQGLSSPVTKSFNRGEC
